For one molecule, Kd results are on record in paper PMC2852889.

In this assay the target is human serum amyloid P (human), P02743. Nature of the assay: SPR. The following applies: remark: other sources report otherwise.
Chain of human serum amyloid P (human), P02743 (P02743 20-223): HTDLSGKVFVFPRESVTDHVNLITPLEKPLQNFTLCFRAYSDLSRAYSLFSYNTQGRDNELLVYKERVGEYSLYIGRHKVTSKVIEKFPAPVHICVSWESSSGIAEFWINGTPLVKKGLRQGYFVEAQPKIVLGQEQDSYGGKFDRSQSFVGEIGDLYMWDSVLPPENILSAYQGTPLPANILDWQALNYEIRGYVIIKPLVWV

B1: hFcγRIIIB, O75015 17-200 (receptor)
chain: GMRTEDLPKAVVFLEPQWYSVLEKDSVTLKCQGAYSPEDNSTQWFHNENLISSQASSYFIDAATVNDSGEYRCQTNLSTLSDPVQLEVHIGWLLLQAPRWVFKEEDPIHLRCHSWKNTALHKVTYLQNGKDRKYFHHNSDFHIPKATLKDSGSYFCRGLVGSKNVSSETVNITITQGLAVSTIS
B1 yielded a Kd of 0.37 nM. This counts as sub-nanomolar.

The Kd is the constant that tells how readily two partners part at equilibrium. A lower Kd goes with higher affinity.
